{"source": "patent JP2023550785A", "about": "(dated 2023)", "binders": {"B1": {"name": "antibody S2P6 (antibody 420 1 1), human monoclonal antibody expressed as recombinant human IgG1 (antibody, V domains shown)", "VH": "EVQLVQSGAEVKKPGASVKVSCKASGYTFTSQYMHWVRQAPGQGLEWIGIINPSGVHTSYAQKFQGRVTLTRDTSTSTLYMELSSLRSEDTAVYYCARGSPKGAFDYWGQGTLVTVSS", "VL": "not shown"}}, "key": {"[1]": {"target": "SARS-CoV (Urbani strain) prefusion-stabilized spike (S) protein / S ectodomain trimer (SARS-CoV (Urbani strain), UniProt P59594 14-1195)"}, "[2]": {"target": "T1, spike protein of alphacoronavirus NL63-CoV (HCoV-NL63, UniProt Q6Q1S2 16-1291)", "T1 sequence": "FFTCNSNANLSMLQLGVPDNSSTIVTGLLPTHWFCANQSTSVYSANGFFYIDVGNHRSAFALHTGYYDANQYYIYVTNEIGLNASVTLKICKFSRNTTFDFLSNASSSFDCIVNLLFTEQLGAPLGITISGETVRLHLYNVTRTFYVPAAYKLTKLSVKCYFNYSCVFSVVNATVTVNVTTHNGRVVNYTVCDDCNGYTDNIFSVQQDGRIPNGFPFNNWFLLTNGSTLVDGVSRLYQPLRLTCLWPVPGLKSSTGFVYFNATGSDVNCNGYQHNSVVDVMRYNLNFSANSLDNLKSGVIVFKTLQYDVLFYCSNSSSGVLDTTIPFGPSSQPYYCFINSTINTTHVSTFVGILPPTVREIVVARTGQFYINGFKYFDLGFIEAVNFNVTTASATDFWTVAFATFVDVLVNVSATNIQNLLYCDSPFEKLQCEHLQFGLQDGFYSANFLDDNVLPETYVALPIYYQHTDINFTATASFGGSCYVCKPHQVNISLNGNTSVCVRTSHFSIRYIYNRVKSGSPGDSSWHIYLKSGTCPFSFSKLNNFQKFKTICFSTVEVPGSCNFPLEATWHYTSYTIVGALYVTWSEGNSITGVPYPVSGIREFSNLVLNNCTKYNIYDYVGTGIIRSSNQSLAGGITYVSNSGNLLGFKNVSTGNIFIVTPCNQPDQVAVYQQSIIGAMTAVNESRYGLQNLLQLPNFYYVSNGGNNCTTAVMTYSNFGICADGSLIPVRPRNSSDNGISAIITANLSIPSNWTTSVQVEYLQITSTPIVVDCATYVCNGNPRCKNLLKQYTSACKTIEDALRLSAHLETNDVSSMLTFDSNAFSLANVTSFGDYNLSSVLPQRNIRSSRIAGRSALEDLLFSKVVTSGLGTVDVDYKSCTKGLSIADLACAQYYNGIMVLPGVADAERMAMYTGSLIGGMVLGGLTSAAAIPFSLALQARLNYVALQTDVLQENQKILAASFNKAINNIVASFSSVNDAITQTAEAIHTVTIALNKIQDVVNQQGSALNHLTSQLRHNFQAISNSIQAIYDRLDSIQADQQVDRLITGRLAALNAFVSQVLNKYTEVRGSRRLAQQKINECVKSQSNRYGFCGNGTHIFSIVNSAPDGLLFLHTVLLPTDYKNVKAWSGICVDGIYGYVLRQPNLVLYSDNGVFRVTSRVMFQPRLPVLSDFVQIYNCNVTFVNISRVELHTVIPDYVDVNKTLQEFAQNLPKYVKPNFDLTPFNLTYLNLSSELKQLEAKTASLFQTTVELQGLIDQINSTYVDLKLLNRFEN", "experiment": "ELISA on alphacoronavirus spike proteins (Fig 37)"}, "[3]": {"target": "T2, spike protein of alphacoronavirus 229E-CoV (HCoV-229E, UniProt P15423 16-1115)", "T2 sequence": "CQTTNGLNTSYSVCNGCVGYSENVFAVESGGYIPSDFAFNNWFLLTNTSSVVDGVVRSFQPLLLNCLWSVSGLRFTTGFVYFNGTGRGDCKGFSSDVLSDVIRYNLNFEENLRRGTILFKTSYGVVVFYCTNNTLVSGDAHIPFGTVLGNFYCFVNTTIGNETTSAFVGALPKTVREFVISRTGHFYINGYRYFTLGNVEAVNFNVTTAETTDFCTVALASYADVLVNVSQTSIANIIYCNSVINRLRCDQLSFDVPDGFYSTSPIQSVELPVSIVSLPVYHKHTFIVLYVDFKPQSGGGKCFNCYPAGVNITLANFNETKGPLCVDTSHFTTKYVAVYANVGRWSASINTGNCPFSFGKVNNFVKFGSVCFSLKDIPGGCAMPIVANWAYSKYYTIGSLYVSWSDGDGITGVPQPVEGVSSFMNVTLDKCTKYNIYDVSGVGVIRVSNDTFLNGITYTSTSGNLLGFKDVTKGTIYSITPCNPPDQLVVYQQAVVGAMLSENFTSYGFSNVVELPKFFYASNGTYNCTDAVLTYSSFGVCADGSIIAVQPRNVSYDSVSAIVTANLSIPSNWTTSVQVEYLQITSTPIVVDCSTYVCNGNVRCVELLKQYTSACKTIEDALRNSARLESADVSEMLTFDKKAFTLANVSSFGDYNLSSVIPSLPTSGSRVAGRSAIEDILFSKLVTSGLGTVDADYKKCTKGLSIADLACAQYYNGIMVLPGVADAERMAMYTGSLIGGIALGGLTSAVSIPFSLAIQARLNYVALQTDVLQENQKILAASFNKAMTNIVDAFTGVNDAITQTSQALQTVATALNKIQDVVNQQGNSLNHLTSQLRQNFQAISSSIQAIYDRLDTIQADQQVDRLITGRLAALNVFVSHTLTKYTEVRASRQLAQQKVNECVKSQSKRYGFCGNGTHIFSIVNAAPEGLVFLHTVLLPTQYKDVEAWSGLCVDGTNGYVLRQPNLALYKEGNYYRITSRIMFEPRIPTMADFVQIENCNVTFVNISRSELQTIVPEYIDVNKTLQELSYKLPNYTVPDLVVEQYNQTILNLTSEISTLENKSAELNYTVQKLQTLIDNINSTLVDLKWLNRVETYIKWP", "experiment": "ELISA on alphacoronavirus spike proteins (Fig 37)"}}, "data": [{"binder": "B1", "values": [{"measurement": "Kd", "setting": "[1]", "value": "< 1", "unit": "pM"}, {"measurement": "binding result", "setting": "[2]", "value": "no binding"}, {"measurement": "binding result", "setting": "[3]", "value": "no binding"}]}]}
